Experimental data as given in patent US20140087995A1 (published 2014).
Values belong to the binder of their own block, whether it stands above or below them. Numbered stars: 1 amine (or outer) side, 2 acyl side, 3 side chain; on linkers, the order of the positions; unused ones are H or OH. Bridge positions count the residues as written; N and C are the ends. Side chains are listed from the residue outwards. Ends that are not written are not given here. * marks the point of attachment. C20 diacid = O=C(O)CCCCCCCCCCCCCCCCCCC(=O)*; γGlu = O=C(O)[C@H](CCC(=O)[*:2])N[*:1]; AEEA = NCCOCCOCC(=O)O

Target: T1, human calcitonin receptor (human, UniProt P30988 25-474)
T1 construct: whole, on cells; Assay used cell membranes of the transfected BHK cells; also called hCTR; hCT
T1 sequence (looked up): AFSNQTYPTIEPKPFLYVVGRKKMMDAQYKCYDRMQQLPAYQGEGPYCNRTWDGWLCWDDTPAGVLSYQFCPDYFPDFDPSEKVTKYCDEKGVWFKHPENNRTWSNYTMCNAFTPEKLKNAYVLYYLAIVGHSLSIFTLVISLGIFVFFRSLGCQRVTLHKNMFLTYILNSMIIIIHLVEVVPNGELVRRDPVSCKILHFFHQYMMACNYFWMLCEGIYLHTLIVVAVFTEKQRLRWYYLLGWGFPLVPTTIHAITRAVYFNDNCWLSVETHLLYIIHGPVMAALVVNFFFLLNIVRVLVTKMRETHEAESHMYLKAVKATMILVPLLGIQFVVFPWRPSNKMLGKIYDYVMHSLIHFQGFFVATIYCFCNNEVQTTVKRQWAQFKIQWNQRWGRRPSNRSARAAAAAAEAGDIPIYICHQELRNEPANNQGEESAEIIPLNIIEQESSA
Assay: SPA radioligand competition (125I-calcitonin), membranes of BHK cells with human calcitonin receptor
Summary of the method: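 BHK hCTR membranes 35 ng/μL + SPA beads 0.05 mg/well; buffer 50 mM Hepes pH 7.4, 1 mM CaCl2, 5 mM MgCl₂, 0.1% OA, 0.02% Tween20. 120 min, 25° C., shaking. Scintillation count; IC50 by one-site binding competition.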

B1: N^ε1-[2-[2-[2-[[(4S)-4-carboxy-4-(19-carboxynonadecanoylamino)butanoyl]amino]ethoxy]ethoxy]acetyl]-[Arg17,Pro21,Pro27,Pro34]-h-amylin (peptide)
peptide: K([AEEA-γGlu-C20 diacid])CNTATCATQRLANFLRHSSPNFGAIPSSTNVGPNTY-NH2
modifications: disulfide 2-7; N-terminus assumed
SMILES: CC[C@H](C)[C@H](NC(=O)[C@H](C)NC(=O)CNC(=O)[C@H](Cc1ccccc1)NC(=O)[C@H](CC(N)=O)NC(=O)[C@@H]1CCCN1C(=O)[C@H](CO)NC(=O)[C@H](CO)NC(=O)[C@H](Cc1c[nH]cn1)NC(=O)[C@H](CCCNC(=N)N)NC(=O)[C@H](CC(C)C)NC(=O)[C@H](Cc1ccccc1)NC(=O)[C@H](CC(N)=O)NC(=O)[C@H](C)NC(=O)[C@H](CC(C)C)NC(=O)[C@H](CCCNC(=N)N)NC(=O)[C@H](CCC(N)=O)NC(=O)[C@@H](NC(=O)[C@H](C)NC(=O)[C@@H]1CSSC[C@H](NC(=O)[C@@H](N)CCCCNC(=O)COCCOCCNC(=O)CC[C@H](NC(=O)CCCCCCCCCCCCCCCCCCC(=O)O)C(=O)O)C(=O)N[C@@H](CC(N)=O)C(=O)N[C@@H]([C@@H](C)O)C(=O)N[C@@H](C)C(=O)N[C@@H]([C@@H](C)O)C(=O)N1)[C@@H](C)O)C(=O)N1CCC[C@H]1C(=O)N[C@@H](CO)C(=O)N[C@@H](CO)C(=O)N[C@H](C(=O)N[C@@H](CC(N)=O)C(=O)N[C@H](C(=O)NCC(=O)N1CCC[C@H]1C(=O)N[C@@H](CC(N)=O)C(=O)N[C@H](C(=O)N[C@@H](Cc1ccc(O)cc1)C(N)=O)[C@@H](C)O)C(C)C)[C@@H](C)O
notes: Synthetic analogue; also called compound 50
IC50: 1.38 nM

B2: N^ε1-[2-[2-[2-[[(4S)-4-carboxy-4-(19-carboxynonadecanoylamino)butanoyl]amino]ethoxy]ethoxy]acetyl]-[His14,Arg17,Pro21,Pro27,Pro31]-h-amylin (peptide)
peptide: K([AEEA-γGlu-C20 diacid])CNTATCATQRLAHFLRHSSPNFGAIPSSTPVGSNTY-NH2
modifications: disulfide 2-7; N-terminus assumed
SMILES: CC[C@H](C)[C@H](NC(=O)[C@H](C)NC(=O)CNC(=O)[C@H](Cc1ccccc1)NC(=O)[C@H](CC(N)=O)NC(=O)[C@@H]1CCCN1C(=O)[C@H](CO)NC(=O)[C@H](CO)NC(=O)[C@H](Cc1c[nH]cn1)NC(=O)[C@H](CCCNC(=N)N)NC(=O)[C@H](CC(C)C)NC(=O)[C@H](Cc1ccccc1)NC(=O)[C@H](Cc1c[nH]cn1)NC(=O)[C@H](C)NC(=O)[C@H](CC(C)C)NC(=O)[C@H](CCCNC(=N)N)NC(=O)[C@H](CCC(N)=O)NC(=O)[C@@H](NC(=O)[C@H](C)NC(=O)[C@@H]1CSSC[C@H](NC(=O)[C@@H](N)CCCCNC(=O)COCCOCCNC(=O)CC[C@H](NC(=O)CCCCCCCCCCCCCCCCCCC(=O)O)C(=O)O)C(=O)N[C@@H](CC(N)=O)C(=O)N[C@@H]([C@@H](C)O)C(=O)N[C@@H](C)C(=O)N[C@@H]([C@@H](C)O)C(=O)N1)[C@@H](C)O)C(=O)N1CCC[C@H]1C(=O)N[C@@H](CO)C(=O)N[C@@H](CO)C(=O)N[C@H](C(=O)N1CCC[C@H]1C(=O)N[C@H](C(=O)NCC(=O)N[C@@H](CO)C(=O)N[C@@H](CC(N)=O)C(=O)N[C@H](C(=O)N[C@@H](Cc1ccc(O)cc1)C(N)=O)[C@@H](C)O)C(C)C)[C@@H](C)O
notes: Synthetic analogue; also called compound 61
IC50: 8.11 nM

B3: N^ε1-[(4S)-4-carboxy-4-(19-carboxynonadecanoylamino)butanoyl]-[Glu14,Arg17,Pro21,Pro27,Arg35]-h-amylin (peptide)
peptide: K([γGlu-C20 diacid])CNTATCATQRLAEFLRHSSPNFGAIPSSTNVGSRTY-NH2
modifications: disulfide 2-7; N-terminus assumed
SMILES: CC[C@H](C)[C@H](NC(=O)[C@H](C)NC(=O)CNC(=O)[C@H](Cc1ccccc1)NC(=O)[C@H](CC(N)=O)NC(=O)[C@@H]1CCCN1C(=O)[C@H](CO)NC(=O)[C@H](CO)NC(=O)[C@H](Cc1c[nH]cn1)NC(=O)[C@H](CCCNC(=N)N)NC(=O)[C@H](CC(C)C)NC(=O)[C@H](Cc1ccccc1)NC(=O)[C@H](CCC(=O)O)NC(=O)[C@H](C)NC(=O)[C@H](CC(C)C)NC(=O)[C@H](CCCNC(=N)N)NC(=O)[C@H](CCC(N)=O)NC(=O)[C@@H](NC(=O)[C@H](C)NC(=O)[C@@H]1CSSC[C@H](NC(=O)[C@@H](N)CCCCNC(=O)CC[C@H](NC(=O)CCCCCCCCCCCCCCCCCCC(=O)O)C(=O)O)C(=O)N[C@@H](CC(N)=O)C(=O)N[C@@H]([C@@H](C)O)C(=O)N[C@@H](C)C(=O)N[C@@H]([C@@H](C)O)C(=O)N1)[C@@H](C)O)C(=O)N1CCC[C@H]1C(=O)N[C@@H](CO)C(=O)N[C@@H](CO)C(=O)N[C@H](C(=O)N[C@@H](CC(N)=O)C(=O)N[C@H](C(=O)NCC(=O)N[C@@H](CO)C(=O)N[C@@H](CCCNC(=N)N)C(=O)N[C@H](C(=O)N[C@@H](Cc1ccc(O)cc1)C(N)=O)[C@@H](C)O)C(C)C)[C@@H](C)O
notes: Synthetic analogue; also called compound 51
IC50: 31.1 nM

Continued, values first:

IC50: 31.4 nM
B4: N^ε1-[(4S)-4-carboxy-4-(19-carboxynonadecanoylamino)butanoyl]-[Arg17,Pro21,Pro27,His35]-h-amylin (peptide)
peptide: K([γGlu-C20 diacid])CNTATCATQRLANFLRHSSPNFGAIPSSTNVGSHTY-NH2
modifications: disulfide 2-7; N-terminus assumed
SMILES: CC[C@H](C)[C@H](NC(=O)[C@H](C)NC(=O)CNC(=O)[C@H](Cc1ccccc1)NC(=O)[C@H](CC(N)=O)NC(=O)[C@@H]1CCCN1C(=O)[C@H](CO)NC(=O)[C@H](CO)NC(=O)[C@H](Cc1c[nH]cn1)NC(=O)[C@H](CCCNC(=N)N)NC(=O)[C@H](CC(C)C)NC(=O)[C@H](Cc1ccccc1)NC(=O)[C@H](CC(N)=O)NC(=O)[C@H](C)NC(=O)[C@H](CC(C)C)NC(=O)[C@H](CCCNC(=N)N)NC(=O)[C@H](CCC(N)=O)NC(=O)[C@@H](NC(=O)[C@H](C)NC(=O)[C@@H]1CSSC[C@H](NC(=O)[C@@H](N)CCCCNC(=O)CC[C@H](NC(=O)CCCCCCCCCCCCCCCCCCC(=O)O)C(=O)O)C(=O)N[C@@H](CC(N)=O)C(=O)N[C@@H]([C@@H](C)O)C(=O)N[C@@H](C)C(=O)N[C@@H]([C@@H](C)O)C(=O)N1)[C@@H](C)O)C(=O)N1CCC[C@H]1C(=O)N[C@@H](CO)C(=O)N[C@@H](CO)C(=O)N[C@H](C(=O)N[C@@H](CC(N)=O)C(=O)N[C@H](C(=O)NCC(=O)N[C@@H](CO)C(=O)N[C@@H](Cc1c[nH]cn1)C(=O)N[C@H](C(=O)N[C@@H](Cc1ccc(O)cc1)C(N)=O)[C@@H](C)O)C(C)C)[C@@H](C)O
notes: Synthetic analogue; also called compound 60

IC50: 130 nM
B5: N^ε1-[(4S)-4-carboxy-4-(19-carboxynonadecanoylamino)butanoyl]-[Arg14,Arg17,Pro21,Pro27,Pro31]-h-amylin (peptide)
peptide: K([γGlu-C20 diacid])CNTATCATQRLARFLRHSSPNFGAIPSSTPVGSNTY-NH2
modifications: disulfide 2-7; N-terminus assumed
SMILES: CC[C@H](C)[C@H](NC(=O)[C@H](C)NC(=O)CNC(=O)[C@H](Cc1ccccc1)NC(=O)[C@H](CC(N)=O)NC(=O)[C@@H]1CCCN1C(=O)[C@H](CO)NC(=O)[C@H](CO)NC(=O)[C@H](Cc1c[nH]cn1)NC(=O)[C@H](CCCNC(=N)N)NC(=O)[C@H](CC(C)C)NC(=O)[C@H](Cc1ccccc1)NC(=O)[C@H](CCCNC(=N)N)NC(=O)[C@H](C)NC(=O)[C@H](CC(C)C)NC(=O)[C@H](CCCNC(=N)N)NC(=O)[C@H](CCC(N)=O)NC(=O)[C@@H](NC(=O)[C@H](C)NC(=O)[C@@H]1CSSC[C@H](NC(=O)[C@@H](N)CCCCNC(=O)CC[C@H](NC(=O)CCCCCCCCCCCCCCCCCCC(=O)O)C(=O)O)C(=O)N[C@@H](CC(N)=O)C(=O)N[C@@H]([C@@H](C)O)C(=O)N[C@@H](C)C(=O)N[C@@H]([C@@H](C)O)C(=O)N1)[C@@H](C)O)C(=O)N1CCC[C@H]1C(=O)N[C@@H](CO)C(=O)N[C@@H](CO)C(=O)N[C@H](C(=O)N1CCC[C@H]1C(=O)N[C@H](C(=O)NCC(=O)N[C@@H](CO)C(=O)N[C@@H](CC(N)=O)C(=O)N[C@H](C(=O)N[C@@H](Cc1ccc(O)cc1)C(N)=O)[C@@H](C)O)C(C)C)[C@@H](C)O
notes: Synthetic analogue; also called compound 63
